According to publication PMC11148541 (Cancer Immunology Research, 2024):

Biological target: T1, mouse IL18BPd-Fc (mouse, UniProt Q9Z0M9 29-193)
T1 sequence: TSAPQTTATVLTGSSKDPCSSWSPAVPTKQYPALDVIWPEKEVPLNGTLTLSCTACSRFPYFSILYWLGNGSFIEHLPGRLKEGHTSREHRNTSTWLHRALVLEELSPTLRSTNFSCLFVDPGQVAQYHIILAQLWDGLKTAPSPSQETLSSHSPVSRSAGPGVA
Assay: KinExA

B1: mouse IL18 (ligand)
chain: NFGRLHCTTAVIRNINDQVLFVDKRQPVFEDMTDIDQSASEPQTRLIIYMYKDSEVRGLAVTLSVKDSKMSTLSCKNKIISFEEMDPPENIDDIQSDLIFFQKRVPGHNKMEFESSLYEGHFLACQKEDDAFKLILKKKDENGDKSVMFTLTNLHQS
B1 gave a Kd of 3.7 pM.
